According to patent US20220306762A1:

Tests used:
[1] = target: His-tagged human CD38 (ACRO Biosystems CD8-H5224) (human) (UniProt P28907); assay: SPR (second run), His-tagged CD38
[2] = target: His-tagged human CD38 (ACRO Biosystems cat #CD8-H5224) (human) (UniProt P28907); assay: SPR (Carterra LSA), His-CD38 analyte
[3] = target: His-tagged human CD38 (ACRO Biosystems cat #CD8-H5224) (human) (UniProt P28907); assay: SPR (Carterra LSA), antibody captured by anti-human Fc, His-tagged CD38 injected
[4] = target: CD38 on Daudi target cells (UniProt P28907); assay: cell-based or functional assay

| Kd [1] | Kd [2] | Kd [3] | ADCC EC50 [4] | Max RLU [4] | PBMC ADCC EC50 [4] | Lowest Remaining Target % [4] | Substance |
| --- | --- | --- | --- | --- | --- | --- | --- |
| 37.1 nM | – | – | – | – | – | – | Dara Benchmark (antibody) |
| 5.8 nM | 2.69 nM | 5.8 nM | 12.3 ng/mL | 3.16e+06 RLU | 0.0406 ng/mL | – | Isa Benchmark (antibody) |
| – | – | – | 68.2 ng/mL | 2.47e+06 RLU | 0.0983 ng/mL | 57% | Daratumumab (benchmark) (antibody) |
